Measured values published in US6936690 (Takeda / Millennium, dated 2005).
Substitutions are numbered along the chain they refer to. Names may count otherwise.

T1: Myc-tagged CARD-14 (full-length CARD-14 with C-terminal Myc epitopes, pCMV-Tag 5A) (human, UniProt Q9BXL6 1-1004)
T1 construct: Expressed in 293T cells (co-immunoprecipitation, Bcl-10 phosphorylation) and Rat-1 cells (co-localization)
T1 sequence: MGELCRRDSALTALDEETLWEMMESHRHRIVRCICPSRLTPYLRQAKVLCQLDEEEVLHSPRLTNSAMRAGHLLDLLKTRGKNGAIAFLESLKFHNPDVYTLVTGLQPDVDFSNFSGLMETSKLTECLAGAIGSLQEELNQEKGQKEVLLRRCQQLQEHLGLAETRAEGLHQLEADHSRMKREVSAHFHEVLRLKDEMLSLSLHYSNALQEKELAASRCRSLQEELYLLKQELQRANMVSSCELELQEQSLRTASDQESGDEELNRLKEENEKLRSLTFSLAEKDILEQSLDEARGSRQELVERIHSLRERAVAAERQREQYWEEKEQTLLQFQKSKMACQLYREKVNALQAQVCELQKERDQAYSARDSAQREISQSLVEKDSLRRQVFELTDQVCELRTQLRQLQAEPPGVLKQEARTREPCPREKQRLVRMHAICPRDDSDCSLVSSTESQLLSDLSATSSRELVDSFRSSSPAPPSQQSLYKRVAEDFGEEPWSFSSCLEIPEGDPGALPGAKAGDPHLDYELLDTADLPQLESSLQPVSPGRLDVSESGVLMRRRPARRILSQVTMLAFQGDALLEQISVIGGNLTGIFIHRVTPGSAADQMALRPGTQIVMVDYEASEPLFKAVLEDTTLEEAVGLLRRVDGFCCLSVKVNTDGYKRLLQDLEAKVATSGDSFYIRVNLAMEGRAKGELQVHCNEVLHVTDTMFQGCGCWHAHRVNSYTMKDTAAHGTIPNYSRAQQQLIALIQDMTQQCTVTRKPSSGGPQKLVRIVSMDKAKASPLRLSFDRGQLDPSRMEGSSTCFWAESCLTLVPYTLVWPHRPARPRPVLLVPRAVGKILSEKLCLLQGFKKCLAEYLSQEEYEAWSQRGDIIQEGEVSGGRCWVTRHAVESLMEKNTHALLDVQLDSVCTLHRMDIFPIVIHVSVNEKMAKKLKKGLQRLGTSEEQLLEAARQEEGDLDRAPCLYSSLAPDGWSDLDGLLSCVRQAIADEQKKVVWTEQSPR

T2: CARD-14 protein labeled with 35S-methionine (human, UniProt Q9BXL6 1-1004, limits assumed, labeled with 35S-methionine)
T2 construct: also called radiolabeled CARD-14
T2 sequence: T1 sequence

B1: HA-tagged Bcl10 (other, UniProt O95999 1-233, looked up, not shown: small tags and cut ends)
chain: MEPTAPSLTEEDLTEVKKDALENLRVYLCEKIIAERHFDHLRAKKILSREDTEEISCRTSSRKRAGKLLDYLQENPKGLDTLVESIRREKTQNFLIQKITDEVLKLRNIKLEHLKGLKCSSCEPFPDGATNNLSRSNSDESNFSEKLRASTVMYHPEGESSTTPFFSTNSSLNLPVLEVGRTENTIFSSTTLPRPGDPGAPPLPPDLQLEEEGTCANSSEMFLPLRSRTVSRQ
notes: Expressed in Rat-1 cells (co-localization) and 293T cells (phosphorylation); also called HA-Bcl-10
B2: GST-Bcl-10 L41R mutant (other, UniProt O95999 1-233, looked up)
chain: B1 chain with L41R
notes: Expressed in DH5 alpha bacteria and immobilized on glutathione-sepharose; also called variant of Bcl-10 with a point mutation (L41R); not shown: GST fusion partner

Key:
[1] = target: T1, Myc-tagged CARD-14 (full-length CARD-14 …); experiment: co-localization by immunofluorescence in Rat-1 cells
Procedure: To further confirm the interaction between CARD-14 and Bcl-10, co-localization experiments were performed with full-length CARD-14. In these studies, Rat-1 cells were transfected in PDL-coated glass chamber slides (BioCoat, Becton-Dickinson Labware) with plasmids expressing HA-tagged Bcl10 and Myc-tagged CARD-14 using FuGENE-6 (Roche Molecular Biochemicals) for 20 hours. Cells were fixed in 4% paraformaldehyde, permeabilized and blocked in buffer containing 0.4% Triton X-100, and sequentially incubated with primary and secondary antibodies: rabbit anti-HA polyclonal Y-11 (Santa Cruz Biotechnology), mouse anti-Myc monoclonal 9E10 (Oncogene Research Products), Alexa-488 Goat anti-mouse IgG (Molecular Probes) and Alexa-594 Goat anti-rabbit IgG (Molecular Probes). No cross-reactivity was observed between any of the antibodies. Images were acquired using a Nikon T200 microscope with a 60× oil objective and an Orca100 digital camera (Hammamatsu, Inc.) driven by MetaMorph software (Universal Imaging Corp.). Final images were prepared using Adobe PhotoShop.

[2] = target: T2, CARD-14 protein labeled with …; experiment: GST pull-down on glutathione-sepharose, autoradiography
Procedure: The interaction of radiolabeled CARD-14 with GST-Bcl-10 in vitro was also examined. Bcl-10 wild type and L41R mutant were expressed in DH5 alpha bacteria as GST fusion proteins and equal amounts of protein were immobilized on glutathione-sepharose (Amersham-Pharmacia). An equal amount of CARD-14 protein, labeled with ^35S-methionine, was incubated with the protein bound sepharose beads in 100 μl of binding buffer (50 mM Tris-Cl pH 7.6, 120 mM NaCl, 0.5% Brij and protease inhibitors) for three hours. The beads were washed four times with the same buffer and boiled in SDS sample buffer. The proteins were then resolved on a 10% SDS gel and visualized by autoradiography.

binding result [1] | binding result [2] | Binder
binds | – | B1
– | no binding | B2
